# Source: patent publication US20260284221 (published 2026)
# Changes are numbered by the printed parent chain.
# T1: Rhesus macaque Trop2 (rhesus macaque)
# T1 chain: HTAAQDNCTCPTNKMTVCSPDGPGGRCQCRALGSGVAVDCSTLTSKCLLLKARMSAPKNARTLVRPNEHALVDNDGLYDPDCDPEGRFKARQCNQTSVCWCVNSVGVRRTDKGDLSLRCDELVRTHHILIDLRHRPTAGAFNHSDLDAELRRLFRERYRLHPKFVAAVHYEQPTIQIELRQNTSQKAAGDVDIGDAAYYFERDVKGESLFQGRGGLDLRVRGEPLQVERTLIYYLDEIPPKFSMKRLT
# T2: Mouse Trop2 (mouse, UniProt Q8BGV3)
# T2 chain: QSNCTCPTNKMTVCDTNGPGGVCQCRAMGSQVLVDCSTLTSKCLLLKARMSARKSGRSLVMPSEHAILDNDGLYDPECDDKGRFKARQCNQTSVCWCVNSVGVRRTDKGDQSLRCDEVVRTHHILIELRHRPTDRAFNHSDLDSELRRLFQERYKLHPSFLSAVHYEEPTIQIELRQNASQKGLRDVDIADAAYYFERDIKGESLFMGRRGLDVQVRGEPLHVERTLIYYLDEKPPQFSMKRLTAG
# T3: Human Trop2 (human, UniProt P09758)
# T3 chain: T1 chain with V36M, N67S, V204I
# T4: Rat Trop2 (rat, UniProt Q6P9Z6)
# T4 chain: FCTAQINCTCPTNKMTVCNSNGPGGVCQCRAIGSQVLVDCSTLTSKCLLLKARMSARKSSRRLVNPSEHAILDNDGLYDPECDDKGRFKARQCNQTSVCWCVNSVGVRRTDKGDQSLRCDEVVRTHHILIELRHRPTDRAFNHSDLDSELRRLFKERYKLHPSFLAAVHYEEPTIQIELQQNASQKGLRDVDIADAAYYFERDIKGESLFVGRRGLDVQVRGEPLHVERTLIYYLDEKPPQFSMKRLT
# B1: L2-conjugated anti-Trop2 antibody (IB12) (antibody, V domains shown)
# VH: EVQLVESGGGLVQPGGSLRLSCAASGFTFNNYAMSWVRQAPGKGLEWVSTISSDGTYTYYADSVKGRFTISRDNSKNTLYLQMNSLRAEDTAVYYCARHPPSYYYAFDYWGQGTTLTVSS
# VL: EIVLTQSPGTLSLSPGERATLSCRASESVDSYGNSFIHWYQQKPGQAPRLLIYLASNLESGIPDRFSGSGSGTDFTLTISRLEPEDFAVYYCQQNNEDLWTFGGGTKLEIK
# modifications: conjugated with L2 linker; heavy constant SEQ2, light constant SEQ4
# Legend:
# Assay in all cases: BLI pH 7.4
# Rhesus macaque Trop2 = molecular target: T1, Rhesus macaque Trop2
# Mouse Trop2 = molecular target: T2, Mouse Trop2
# Human Trop2 = molecular target: T3, Human Trop2
# Rat Trop2 = molecular target: T4, Rat Trop2
binder,measurement,setting,value
B1,Kd,Rhesus macaque Trop2,< 0.001 nM
same,binding result,Mouse Trop2,no binding
same,Kd,Human Trop2,22.6 nM
same,binding result,Rat Trop2,no binding
